Experimental data: article PMC2599808

Legend:
[1] = target: recombinant wild-type cardiac troponin C (chicken) (UniProt P09860); test: native gel or EMSA
[2] = target: recombinant wild-type cardiac troponin T (rat) (UniProt P50753); test: native gel or EMSA

| Substance | stoichiometry N [1] | stoichiometry N [2] |
| --- | --- | --- |
| cTnI(151C), cardiac troponin I single-cysteine mutant C81I/C98S/S151C labeled with AEDANS (from UniProt P48787 1-211) (natural protein) | 1 | 1 |
| cTnI(160C), cardiac troponin I single-cysteine mutant C81I/C98S/L160C labeled with AEDANS (from UniProt P48787 1-211) (natural protein) | 1 | 1 |
| cTnI(167C), cardiac troponin I single-cysteine mutant C81I/C98S/S167C labeled with AEDANS (from UniProt P48787 1-211) (natural protein) | 1 | 1 |
| cTnI(210C), cardiac troponin I single-cysteine mutant C81I/C98S/E210C labeled with AEDANS (from UniProt P48787 1-211) (natural protein) | 1 | 1 |
| cTnI(131C), cardiac troponin I single-cysteine mutant C81I/C98S/Q131C labeled with AEDANS (from UniProt P48787 1-211) (natural protein) | 1 | 1 |
| cTnI(188C), cardiac troponin I single-cysteine mutant C81I/C98S/E188C labeled with AEDANS (from UniProt P48787 1-211) (natural protein) | 1 | 1 |
